Where a chain is given by its changes, count along the chain named. Values belong to the binder of their own block, whether it stands above or below them.
Tests used:
[1] = molecular target: T1, B Lymphocyte Stimulator, soluble form (human) (human, UniProt Q9Y275 134-285, biotinylated with NHS-biotin where used as biotinylated B Lymphocyte Stimulator); experiment: BIAcore 2000, purified scFv over low density (500 RU) BLyS surface
T1 construct: Coated on plastic, captured on streptavidin plates, amine-coupled to a CM5 chip or free in solution, depending on the assay; also called BLyS; immobilized B Lymphocyte Stimulator

[2] = molecular target: T2, HIS-tagged B Lymphocyte Stimulator (human, UniProt Q9Y275 71-285); experiment: BIAcore, purified scFv over low density (500 RU) HIS-BLyS surface
T2 construct: Expressed in E. coli from pQE9 and purified; also called histidine-tagged B Lymphocyte Stimulator; HIS-B Lymphocyte Stimulator; not shown: histidine tag of the pQE9 vector
Experimental: The chip containing the low density HIS-B Lymphocyte Stimulator surface was inserted into the BIAcore. […] The dilution series was then injected sequentially over the blank control (flow cell 1) and low density HIS-B Lymphocyte Stimulator surface (flow cell 2) using the following program: […]

[3] = molecular target: T3, membrane-bound B Lymphocyte Stimulator on U937 plasma membrane preparations (human, UniProt Q9Y275 1-285); experiment: phage ELISA
T3 construct: Natural protein in plasma membrane fractions of the human cell line U937 coated on ELISA plates; also called U937 plasma membranes; U937 membranes

[4] = molecular target: T1, B Lymphocyte Stimulator, soluble form …; experiment: phage ELISA
[5] = molecular target: T2, HIS-tagged B Lymphocyte Stimulator; experiment: phage ELISA
[6] = molecular target: T1, B Lymphocyte Stimulator, soluble form …; experiment: cell-based or functional assay
[7] = molecular target: T1, B Lymphocyte Stimulator, soluble form …; experiment: BIAcore, IgG1 captured on low-density Protein A surface, BLyS passed over
Experimental: Briefly, antibodies were captured on low-density Protein A surfaces and B Lymphocyte Stimulator was passed over at various flow rates. The binding of B Lymphocyte Stimulator to immobilized antibody was detected by changes in […] that were proportional to the amount of bound B Lymphocyte Stimulator. Binding values were calculated using software provided by the manufacturer.

[8] = molecular target: T4, biotinylated B Lymphocyte Stimulator, soluble form (human, UniProt Q9Y275 134-285, biotinylated with NHS-biotin, molar ratio 20:1 biotin:protein); experiment: purified scFv, receptor binding inhibition on IM9 cells
T4 construct: also called bio-B Lymphocyte Stimulator; free B Lymphocyte Stimulator

[9] = molecular target: LIGHT (human, UniProt O43557 74-240, limits assumed); experiment: phage ELISA
[10] = molecular target: T5, Bovine serum albumin (bovine, UniProt P02769 25-607); experiment: phage ELISA
T5 construct: also called BSA

[11] = molecular target: T6, TNF-beta (human, UniProt P01374 35-205); experiment: phage ELISA
T6 construct: also called TNFβ; Tumour Necrosis Factor-beta
T6 sequence (looked up): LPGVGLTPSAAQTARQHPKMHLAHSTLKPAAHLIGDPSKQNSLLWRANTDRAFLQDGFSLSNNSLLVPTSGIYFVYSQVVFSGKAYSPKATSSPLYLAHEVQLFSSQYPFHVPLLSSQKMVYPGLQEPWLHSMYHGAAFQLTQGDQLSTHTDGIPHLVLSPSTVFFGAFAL

[12] = molecular target: T7, TRAIL (human, UniProt P50591 114-281); experiment: phage ELISA
T7 construct: also called TNF-related apoptosis inducing ligand

[13] = molecular target: T8, TNF-alpha (human, UniProt P01375 77-233); experiment: phage ELISA
T8 construct: also called TNFα; TNF-α

[14] = molecular target: T1, B Lymphocyte Stimulator, soluble form …; experiment: phage ELISA, biotinylated BLyS on streptavidin plates
[15] = molecular target: T1, B Lymphocyte Stimulator, soluble form …; experiment: phage competition ELISA on P388 plasma membranes
Experimental: P388 plasma membranes (50 μl per well) were coated at 10 μg/ml in PBS onto Falcon 96-well plates overnight at 4° C. The method is otherwise essentially as described Example 16.

T5 sequence (P02769 25-607 limits assumed): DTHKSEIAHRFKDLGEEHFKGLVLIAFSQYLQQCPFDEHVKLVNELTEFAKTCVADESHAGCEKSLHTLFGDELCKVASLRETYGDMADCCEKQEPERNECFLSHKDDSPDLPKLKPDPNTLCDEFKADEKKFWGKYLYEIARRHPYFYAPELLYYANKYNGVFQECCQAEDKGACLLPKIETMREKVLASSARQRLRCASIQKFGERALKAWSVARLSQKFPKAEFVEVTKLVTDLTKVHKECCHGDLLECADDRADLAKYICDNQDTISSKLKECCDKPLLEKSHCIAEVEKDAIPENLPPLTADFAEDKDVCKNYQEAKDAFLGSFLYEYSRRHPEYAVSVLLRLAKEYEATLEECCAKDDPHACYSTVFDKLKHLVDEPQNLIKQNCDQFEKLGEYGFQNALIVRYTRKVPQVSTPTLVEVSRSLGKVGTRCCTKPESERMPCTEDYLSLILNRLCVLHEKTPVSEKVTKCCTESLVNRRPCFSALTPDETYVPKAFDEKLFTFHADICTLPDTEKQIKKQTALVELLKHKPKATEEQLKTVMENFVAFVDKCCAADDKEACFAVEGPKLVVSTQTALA
Chain of LIGHT (O43557 74-240 limits assumed): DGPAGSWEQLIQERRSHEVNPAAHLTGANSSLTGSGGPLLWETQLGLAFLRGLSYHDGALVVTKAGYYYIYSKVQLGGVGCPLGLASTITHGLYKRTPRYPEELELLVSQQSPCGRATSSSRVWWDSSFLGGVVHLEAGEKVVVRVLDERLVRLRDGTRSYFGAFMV
T8 sequence (P01375 77-233 limits assumed): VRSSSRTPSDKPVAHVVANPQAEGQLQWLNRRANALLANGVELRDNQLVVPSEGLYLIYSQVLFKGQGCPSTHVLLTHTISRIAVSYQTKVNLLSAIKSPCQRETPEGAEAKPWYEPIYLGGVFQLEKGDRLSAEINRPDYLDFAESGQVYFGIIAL
T7 sequence (P50591 114-281 limits assumed): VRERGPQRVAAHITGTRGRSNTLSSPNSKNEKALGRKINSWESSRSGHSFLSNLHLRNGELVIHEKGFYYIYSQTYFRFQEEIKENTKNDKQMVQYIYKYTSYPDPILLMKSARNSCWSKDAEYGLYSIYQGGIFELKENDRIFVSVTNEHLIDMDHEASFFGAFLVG

B1: I003C02 (scFv)
scFv: EVQLVQSGAEVKKPGSSVKVSCQASGGNFNSYGVSWVRQAPGQGLEWMGRIIPNVGTANYAQKFQGRVTITADKLTSTVYLEVRSLRSEDTAVYYCARGDYDILTGYPAECFQIWGQGTMVTVSSGGGGSGGGGSGGGGSAQAVLTQPSSASGTPGQRVTISCSGSTSNIGTNTVNWYQQLPGTAPKLLIYSNHLRPSGVPDRFSGSKSGTSASLAISGLQSEDEADYYCSARDDSLNGVVFGGGTKVTVLG
- koff [1]: 0.006 s⁻¹

B3: I082A02 (scFv)
scFv: QVQLVQSGAEVKEPGASVKISCEASGYTFTNNFIDWVRQAPGQGLEWMGTISGSTGNTYYKQGFQGRVTMTRDTATSTAYLEVRGLTSEDTAIYFCARPAASSRGPKDAFDIWGQGTLVTVSSGGGGSGGGGSGGGGSQSVLTQPPSVSAAPGQKVTISCSGSTSNIGNNYVSWYQQHPGKAPKLMIYDVSKRPSGVPDRFSGSKSGNSASLDISGLQSEDEADYYCAAWDDSLSEFLFGTGTKLTVLG
- binding result [3]: binds
- binding result [4]: no binding
- binding result [5]: binds

B4: I006D08 (whole IgG1) (antibody, V domains shown)
VH: QVQLQQSGAEVKKPGSSVRVSCKASGGTFNNNAINWVRQAPGQGLEWMGGIIPMFGTAKYSQNFQGRVAITADESTSTASMELSSLRSEDTAVYYCARSRDLLLFPHYGMDVWGRGTMVTVSS
VL: SSELTQDPAVSVALGQTVRVTCQGDSLRSYYASWYQQKPGQAPVLVIYGKNNRPSGIPDRFSGSSSGNTASLTITGAQAEDEADYYCNSRDSSGNHWVFGGGTELTVLG
notes: constant regions (human IgG1)
- IC50 for the inhibition of human B Lymphocyte Stimulator induced-proliferation of murine B cells (3H-thymidine incorporation) [6]: 90 pM
- fold higher Kd than I116A01 [7]: ~2 fold
- fold higher off rate (kd) than I116A01 [7]: 2 fold

B6: I003F12S (scFv)
scFv: QVQLLQSAAELKKPGQSLKISCKGSGFTFTTYWIGWVRQLPGKGLEWMGIIYPGDSHTTYSPSFEGHVNISVDKSINTAYLQWSSLKASDTAMYYCARHDDDVLTGYYFESWGQGTMVTVSSGGGGSGGGGSGGGGSQSVLTQPASVSGSPGQSITISCTGTSSDVGGYNYVSWYQQHPGKAPKLMIYEGSKRPSGVSNRFSGSKSGNTASLTISGLQAEDEADYYCSSYTTRSTRVFGGGTKLTVLG
- binding result [8]: binds

B8: I075F12 (scFv)
scFv: QVQLVQSGAEVKKPGSSVKVSCKASGGTVSSRTISWVRQAPGQGLEWMGGSLPPSGAPIYAQKFQGRVAITADALTNTAFMELRSLKSDDTAVYYCARDQGRYLDLWGQGTMVTVSSGGGGSGGGGSGGGGSAQAVLTQPSSASGTPGQRATISCSGSSSDIGINAVNWYKQLPRTAPKLLIYRNNQRPSGVPDRFSGSKSGTSASLAIIGLQSEDEADYYCATWDDSLTAYVFGTGTKVTVLG
- binding result [9]: no binding
- binding result [10]: no binding
- binding result [11]: no binding
- binding result [12]: no binding
- binding result [13]: no binding
- binding result [14]: binds

B9: I099D03 (scFv)
scFv: QVQLVQSGAEVKKPGASVRVSCKSSGYTFTNYGISWVRQAPGQGLEWMGWISNNNGKTYYAQKVQGRVTMTTDTSTSTDYMELRGLRSDDTAIYYCARDNGGGTIGFDYWGRGTLVTVSSGGGGSGGGGSGGGGSAQAVLTQPSSVSGAPGQRVTMSCTGSSSNIGAGYDVHWYQQLPGTAPKLLIYDNTNRPSGVPDRFSGSRSGTSASLAITGLQAEDEADYFCQSYDITLSAVFGTGTKVTVLG
- binding result [15]: no binding

Results, then the binder that gave them:

- Kd [2]: 20000 pM
- koff [2]: 0.002 s⁻¹
B2: I082C03 (scFv)
scFv: QVQLVQSGSEVKKPGASVKVSCKTSGYSFTGYFIHWVRQAPGQGLEWMGWINPNSGGTNLAQKFQGRVTMTRDTSISTAYMELSSLKSDDTAVYYCARDASRDIVVLPLAIWGKGTLVTVSSGGGGSGGGGSGGGGSDIQMTQSPSTLSASIGDRVTITCRASEGIYHWLAWYQQKPGKAPKLLIYKASSLASGAPSRFSGSGSGTDFTLTISSLQPDDFATYYCQQYSNYPLTFGGGTKLEIKR

- IC50 for the inhibition of human B Lymphocyte Stimulator induced-proliferation of murine B cells (3H-thymidine incorporation) [6]: 60 pM
B5: I116A01 (whole IgG1) (antibody, V domains shown)
VH: B4 VH with S77G, Y108H, G109A, M110L, D111S, V112P
VL: B4 VL with N88S

- binding result [3]: binds
- binding result [4]: no binding
- binding result [5]: binds
B7: I079C01 (scFv)
scFv: EVQLVESGGGLVQPGGSLRLSCAASGFTFSDYGMHWVRQRPGKGLEWIAFIGSDGSNKYYGDTVKGRFTISRDNAKNSLYLQMNSLRAEGTAVYYCARDWDMDVWGQGTMVTVSSGGGGSGGGGSGGGGSHVILTQPRSVSGSPGQSVTISCTGTSSDVGGYHYVSWYQQHPGKAPRLMIYEVTKRPSGVSNRFSGSKSGNTASLTISGVQAEDEADYYCSSYTSASTVIFGGGTKLTVLG

Source: patent US20110293610A1 (published 2011)
